The RNAGym collection of RNA variant scans (doi:10.1101/gr.219683.116)

B1: mRNA-splicing (parent)
chain: AGUUGCUGCUGGGAGCUCCAGCACAGUGAAAUGGACAGAAGGGCAGAGCAA

Variants of: B1
Assay: exon inclusion enrichment index; higher = more inclusion; WT1 exon 5 minigene, HEK293

| Variant | exon inclusion enrichment index |
| --- | --- |
| AGUUCACACAGGGCUCUCCAGCACAGUGAAAUGGACAGAAGGGCAGAGCAA [G5C C6A U7C G8A U10A A14C G15U] | 0.00827 |
| AGUUCACACAGGGCCCUCCAGCACAGUGAAAUGGACAGAAGGGCAGAGCAA [G5C C6A U7C G8A U10A A14C G15C] | 0.00871 |
| AGUUCACACAGGGCACUCCAGCACAGUGAAAUGGACAGAAGGGCAGAGCAA [G5C C6A U7C G8A U10A A14C G15A] | 0.0306 |
| AGUUACGACCGGGAGCUCCAGCACAGUGAAAUGGACAGAAGGGCAGAGCAA [G5A U7G G8A U10C] | 2.7 |
| AGUUACCACGGGGAGCUCCAGCACAGUGAAAUGGACAGAAGGGCAGAGCAA [G5A U7C G8A U10G] | 1.28 |
| AGUUCAUACAGGGAGCUCCAGCACAGUGAAAUGGACAGAAGGGCAGAGCAA [G5C C6A G8A U10A] | 0.0612 |
| AGUUCACACUCGGAGCUCCAGCACAGUGAAAUGGACAGAAGGGCAGAGCAA [G5C C6A U7C G8A G11C] | 1.01 |
| AGUUCACACUAGGAGCUCCAGCACAGUGAAAUGGACAGAAGGGCAGAGCAA [G5C C6A U7C G8A G11A] | 0.126 |
| AGUUCACACUUGGAGCUCCAGCACAGUGAAAUGGACAGAAGGGCAGAGCAA [G5C C6A U7C G8A G11U] | 0.768 |
| AGUUCCUGCUGGGAGCUCCAGCACAGUGAAAUGGACAGAAGGGCAGAGCAA [G5C] | 0.147 |
| AGUUCACACUGGGAGCUCCAGCACAGUGAAAUGGACAGAAGGGCAGAGCAA [G5C C6A U7C G8A] | 0.613 |
| AGUUACCACCGGGAGCCGCAGCACAGUGAAAUGGACAGAAGGGCAGAGCAA [G5A U7C G8A U10C U17C C18G] | 2.38 |
| AGUUACCACCGGGAGCCACAGCACAGUGAAAUGGACAGAAGGGCAGAGCAA [G5A U7C G8A U10C U17C C18A] | 1.54 |
| AGUUACCACCGGGAGCCUCAGCACAGUGAAAUGGACAGAAGGGCAGAGCAA [G5A U7C G8A U10C U17C C18U] | 1.85 |
| AGUUACCACCGGGAGCUCCAGCACAGACAAAUGGACAGAAGGGCAGAGCAA [G5A U7C G8A U10C U27A G28C] | 2.42 |
| AGUUACCACCGGGAGCUCCAGCACAGAUAAAUGGACAGAAGGGCAGAGCAA [G5A U7C G8A U10C U27A G28U] | 0.834 |
| AGUUACCACCGGGAGCUCCAGCACAGAAAAAUGGACAGAAGGGCAGAGCAA [G5A U7C G8A U10C U27A G28A] | 2.27 |
| AGUUCAACCAGGGAGCUCCAGCACAGUGAAAUGGACAGAAGGGCAGAGCAA [G5C C6A U7A G8C U10A] | 0.514 |
| AGUUACCUGCGGGAGCUCCAGCACAGUGAAAUGGACAGAAGGGCAGAGCAA [G5A U7C G8U C9G U10C] | 1.91 |
| AGUUCAAUCAGGGAGCUCCAGCACAGUGAAAUGGACAGAAGGGCAGAGCAA [G5C C6A U7A G8U U10A] | 0.0878 |
| AGUUACCACCGGGAGCUCCAGCACAGUGAAAGGGACAGAAGGGCAGAGCAA [G5A U7C G8A U10C U32G] | 0.244 |
| AGUUACCACCGGGAGCUCCAGCACAGUGAAACGGACAGAAGGGCAGAGCAA [G5A U7C G8A U10C U32C] | 3.88 |
| AGUUACCACCGGGAGCUCCAGCACAGUGAAAAGGACAGAAGGGCAGAGCAA [G5A U7C G8A U10C U32A] | 1.87 |
| AGUUCAUUUUGGGAGCUCCAGCACAGUGAAAUGGACAGAAGGGCAGAGCAA [G5C C6A G8U C9U] | 0.42 |
| AGUUACCCCCGGGAGCUCCAGCACAGUGAAAUGGACAGAAGGGCAGAGCAA [G5A U7C G8C U10C] | 1.39 |
| AGUUACUGCCGGGAGCUCCAGCACAGUGAAAUGGACAGAAGGGCAGAGCAA [G5A U10C] | 2.01 |

| Variant | exon inclusion enrichment index |
| --- | --- |
| AGUUCAAUAUGGGAGCUCCAGCACAGUGAAAUGGACAGAAGGGCAGAGCAA [G5C C6A U7A G8U C9A] | 0.415 |
| AGUUACCACCGGGAGCUCCAGCACAGUGAAAAAGACAGAAGGGCAGAGCAA [G5A U7C G8A U10C U32A G33A] | 1.05 |
| AGUUACCACCGGGAGCUCCAGCACAGUGAAAAUGACAGAAGGGCAGAGCAA [G5A U7C G8A U10C U32A G33U] | 1.68 |
| AGUUACCACCGGGAGCUCCAGCACAGUGAAAACGACAGAAGGGCAGAGCAA [G5A U7C G8A U10C U32A G33C] | 2.91 |
| AGUUCAAGCCGGGAGCUCCAGCACAGUGAAAUGGACAGAAGGGCAGAGCAA [G5C C6A U7A U10C] | 3.35 |
| AGUUCAAGCAGGGAGCUCCAGCACAGUGAAAUGGACAGAAGGGCAGAGCAA [G5C C6A U7A U10A] | 0.407 |
| AGUUACGUCCGGGAGCUCCAGCACAGUGAAAUGGACAGAAGGGCAGAGCAA [G5A U7G G8U U10C] | 2.36 |
| AGUUACGCCCGGGAGCUCCAGCACAGUGAAAUGGACAGAAGGGCAGAGCAA [G5A U7G G8C U10C] | 2.13 |
| AGUUACGUAUGGGAGCUCCAGCACAGUGAAAUGGACAGAAGGGCAGAGCAA [G5A U7G G8U C9A] | 0.583 |
| AGUUCACAGUGGGAGCUCCAGCACAGUGAAAUGGACAGAAGGGCAGAGCAA [G5C C6A U7C G8A C9G] | 0.446 |
| AGUUCACAAUGGGAGCUCCAGCACAGUGAAAUGGACAGAAGGGCAGAGCAA [G5C C6A U7C G8A C9A] | 0.746 |
| AGUUCACAUUGGGAGCUCCAGCACAGUGAAAUGGACAGAAGGGCAGAGCAA [G5C C6A U7C G8A C9U] | 0.616 |
| AGUUCAACUCGGGAGCUCCAGCACAGUGAAAUGGACAGAAGGGCAGAGCAA [G5C C6A U7A G8C C9U U10C] | 2.04 |
| AGUUCACACAGGGUGCUCCAGCACAGUGAAAUGGACAGAAGGGCAGAGCAA [G5C C6A U7C G8A U10A A14U] | 0.0358 |
| AGUUCACACAGGGCGCUCCAGCACAGUGAAAUGGACAGAAGGGCAGAGCAA [G5C C6A U7C G8A U10A A14C] | 0.0603 |
| AGUUCACACAGGGGGCUCCAGCACAGUGAAAUGGACAGAAGGGCAGAGCAA [G5C C6A U7C G8A U10A A14G] | 0.0477 |
| AGUUACCCGCGGGAGCUCCAGCACAGUGAAAUGGACAGAAGGGCAGAGCAA [G5A U7C G8C C9G U10C] | 1.58 |
| AGUUCACACAGGGGACUCCAGCACAGUGAAAUGGACAGAAGGGCAGAGCAA [G5C C6A U7C G8A U10A A14G G15A] | 0.119 |
| AGUUCACACAGGGGCCUCCAGCACAGUGAAAUGGACAGAAGGGCAGAGCAA [G5C C6A U7C G8A U10A A14G G15C] | 0.0391 |
| AGUUCACACAGGGGUCUCCAGCACAGUGAAAUGGACAGAAGGGCAGAGCAA [G5C C6A U7C G8A U10A A14G G15U] | 0.0158 |
| AGUUCACGAAGGGAGCUCCAGCACAGUGAAAUGGACAGAAGGGCAGAGCAA [G5C C6A U7C C9A U10A] | 0.851 |
| AGUUCACGACGGGAGCUCCAGCACAGUGAAAUGGACAGAAGGGCAGAGCAA [G5C C6A U7C C9A U10C] | 2.61 |
| AGUUCAAACAGGGAGCUCCAGCACAGUGAAAUGGACAGAAGGGCAGAGCAA [G5C C6A U7A G8A U10A] | 0.0993 |
| AGUUACGGAUGGGAGCUCCAGCACAGUGAAAUGGACAGAAGGGCAGAGCAA [G5A U7G C9A] | 1.5 |
| AGUUACCACCGGGAGCAGCAGCACAGUGAAAUGGACAGAAGGGCAGAGCAA [G5A U7C G8A U10C U17A C18G] | 2 |
